# Measurements: patent US20210130436A1 (published 2021)
# Residue numbers refer to the chain shown, from its start. Names may count otherwise.
# T1: CD96 (UniProt P40200 22-585, limits assumed)
# T1 construct: whole, on cells
# T1 sequence (looked up): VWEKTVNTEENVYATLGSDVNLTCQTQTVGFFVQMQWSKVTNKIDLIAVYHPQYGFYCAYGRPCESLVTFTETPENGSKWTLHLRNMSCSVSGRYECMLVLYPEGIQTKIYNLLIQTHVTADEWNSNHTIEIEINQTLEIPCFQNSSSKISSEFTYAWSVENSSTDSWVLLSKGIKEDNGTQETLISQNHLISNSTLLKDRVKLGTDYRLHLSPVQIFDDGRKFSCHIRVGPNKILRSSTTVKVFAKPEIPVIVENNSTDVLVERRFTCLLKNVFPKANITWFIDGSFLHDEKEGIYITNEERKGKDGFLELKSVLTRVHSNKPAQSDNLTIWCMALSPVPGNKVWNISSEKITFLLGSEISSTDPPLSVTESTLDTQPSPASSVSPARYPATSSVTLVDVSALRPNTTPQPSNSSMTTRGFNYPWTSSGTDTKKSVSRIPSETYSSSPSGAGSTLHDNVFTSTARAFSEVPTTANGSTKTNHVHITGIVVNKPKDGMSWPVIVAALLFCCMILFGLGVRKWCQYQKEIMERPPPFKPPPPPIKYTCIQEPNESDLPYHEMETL
# T2: CD226 (UniProt Q15762 19-336)
# T2 construct: whole, on cells
# T2 sequence (looked up): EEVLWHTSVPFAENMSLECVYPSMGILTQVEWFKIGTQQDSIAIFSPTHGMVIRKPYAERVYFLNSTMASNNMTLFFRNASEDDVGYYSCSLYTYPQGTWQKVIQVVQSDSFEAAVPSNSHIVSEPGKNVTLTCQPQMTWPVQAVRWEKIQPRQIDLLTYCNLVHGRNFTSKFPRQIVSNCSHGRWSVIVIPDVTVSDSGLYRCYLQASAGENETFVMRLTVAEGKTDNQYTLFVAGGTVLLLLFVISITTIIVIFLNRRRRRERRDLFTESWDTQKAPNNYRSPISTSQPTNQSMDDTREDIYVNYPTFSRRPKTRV
# T3: TIGIT (UniProt Q495A1 22-244)
# T3 construct: whole, on cells
# T3 sequence (looked up): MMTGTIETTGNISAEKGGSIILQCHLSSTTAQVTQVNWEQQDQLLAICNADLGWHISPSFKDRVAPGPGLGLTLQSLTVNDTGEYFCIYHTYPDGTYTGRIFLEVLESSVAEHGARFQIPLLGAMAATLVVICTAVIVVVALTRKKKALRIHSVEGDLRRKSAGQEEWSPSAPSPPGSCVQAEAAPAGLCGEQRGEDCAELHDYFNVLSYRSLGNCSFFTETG
# B1: CD80 M47V/N48K/K89N IgV-Fc (Fc fusion, not shown: small tags and cut ends; a dimerising Fc or GST)
# chain: VIHVTKEVKEVATLSCGHNVSVEELAQTRIYWQKEKKMVLTMMSGDVKIWPEYKNRTIFDITNNLSIVILALRPSDEGTYECVVLKYENDAFKREHLAEVTLSVKAD
# B2: CD80 N48K/V68M IgV-Fc (Fc fusion, not shown: small tags and cut ends; a dimerising Fc or GST)
# chain: B1 chain with V47M, V68M, N89K
# B3: CD80 E35D/M47V/N48K/V68M/L85Q IgV-Fc (Fc fusion, not shown: small tags and cut ends; a dimerising Fc or GST)
# chain: B1 chain with E35D, V68M, L85Q, N89K
# B4: CD80 E35D/N48K/K89N IgV-Fc (Fc fusion, not shown: small tags and cut ends; a dimerising Fc or GST)
# chain: B1 chain with E35D, V47M
# B5: CD80 E35D/M47V/V68M/L85Q/K89N IgV-Fc (Fc fusion, not shown: small tags and cut ends; a dimerising Fc or GST)
# chain: B1 chain with E35D, K48N, V68M, L85Q
# B6: CD80 M47V/N48K/V68M IgV-Fc (Fc fusion, not shown: small tags and cut ends; a dimerising Fc or GST)
# chain: B1 chain with V68M, N89K
# B7: CD155 S42A variant IgV-Fc fusion (Fc fusion, not shown: a dimerising Fc or GST)
# chain: WPPPGTGDVVVQAPTQVPGFLGDSVTLPCYLQVPNMEVTHVAQLTWARHGESGSMAVFHQTQGPSYSESKRLEFVAARLGAELRNASLRMFGLRVEDEGNYTCLFVTFPQGSRSVDIWLRVL
# B8: CD155 S42N/S52E/V57L/L104E variant IgV-Fc fusion (Fc fusion, not shown: a dimerising Fc or GST)
# chain: B7 chain with A42N, S52E, V57L, L104E
# B9: CD155 S42L variant IgV-Fc fusion (Fc fusion, not shown: a dimerising Fc or GST)
# chain: B7 chain with A42L
# B10: CD155 S42V/S52E variant IgV-Fc fusion (Fc fusion, not shown: a dimerising Fc or GST)
# chain: B7 chain with A42V, S52E
# B11: CD155 S42G/S52L/Q62F/L104Q variant IgV-Fc fusion (Fc fusion, not shown: a dimerising Fc or GST)
# chain: B7 chain with A42G, S52L, Q62F, L104Q
# B12: CD155 S42C/S52M/Q62F variant IgV-Fc fusion (Fc fusion, not shown: a dimerising Fc or GST)
# chain: B7 chain with A42C, S52M, Q62F
# B13: CD155 S42N variant IgV-Fc fusion (Fc fusion, not shown: a dimerising Fc or GST)
# chain: B7 chain with A42N
# B14: CD155 S42G/S52Q/L104E/G111R variant IgV-Fc fusion (Fc fusion, not shown: a dimerising Fc or GST)
# chain: B7 chain with A42G, S52Q, L104E, G111R
# B15: variant CD80 IgV-Fc E35D/M43I/M47V/K89N (Fc fusion, not shown: small tags and cut ends; a dimerising Fc or GST)
# chain: B1 chain with E35D, M43I, K48N
# notes: Fc fusion of the variant IgV
# B16: variant CD80 IgV-Fc Q33R/E35D/M47V/N48K/L85M/F92L (Fc fusion, not shown: small tags and cut ends; a dimerising Fc or GST)
# chain: B1 chain with Q33R, E35D, L85M, N89K, F92L
# notes: Fc fusion of the variant IgV
# B17: variant CD80 IgV-Fc E35D/M38T/M43V/M47V/N48R/L85Q (Fc fusion, not shown: small tags and cut ends; a dimerising Fc or GST)
# chain: B1 chain with E35D, M38T, M43V, K48R, L85Q, N89K
# notes: Fc fusion of the variant IgV
# B18: variant CD80 IgV-Fc E35D/M47V/T62A/A71D/K93E (Fc fusion, not shown: small tags and cut ends; a dimerising Fc or GST)
# chain: B1 chain with E35D, K48N, T62A, A71D, N89K, K93E
# notes: Fc fusion of the variant IgV
# B19: variant CD80 IgV-Fc Q33L/E35D/M43I/Y53F/T62S/L85Q (Fc fusion, not shown: small tags and cut ends; a dimerising Fc or GST)
# chain: B1 chain with Q33L, E35D, M43I, V47M, K48N, Y53F, T62S, L85Q, N89K
# notes: Fc fusion of the variant IgV
# Target: T4, CD28 endogenously expressed on Jurkat/IL2 reporter cells (human, UniProt P10747 19-220)
# T4 construct: whole, on cells; Target on Jurkat cells; also called Jurkats (CD28)
# Test: flow cytometry, Jurkat cells (CD28), Fc fusion at 33.3 nM
row,MFI at 33.3 nM [MFI],Binder
1,366,B1
2,118,B2
3,118,B3
4,411,B4
5,246,B5
6,641,B6

# Target: T1, CD96
# Test: flow cytometry on cells expressing CD96, Fc fusion at 100 nM
row,MFI at 100 nM [MFI],Binder
1,1620,B7
2,1540,B8
3,1620,B9
4,2530,B10
5,1640,B11
6,1480,B12
7,1690,B13

# Target: T2, CD226
# Test: flow cytometry on cells expressing CD226, Fc fusion at 100 nM
row,MFI at 100 nM [MFI],Binder
1,2190,B7
2,1740,B8
3,2190,B9
4,2020,B14
5,2270,B10
6,2160,B11
7,2080,B12
8,1910,B13

# Target: T3, TIGIT
# Test: flow cytometry on cells expressing TIGIT, Fc fusion at 100 nM
row,MFI at 100 nM [MFI],Binder
1,1930,B7
2,1780,B8
3,1930,B9
4,2010,B14
5,2060,B10
6,1920,B11
7,1860,B12
8,1820,B13

# Target: T5, human CTLA4 expressed on CHO cells (human, UniProt P16410 36-223)
# T5 construct: whole, on cells; Target on CHO cells stably expressing CTLA4; also called huCTLA4
# T5 sequence (P16410 36-223): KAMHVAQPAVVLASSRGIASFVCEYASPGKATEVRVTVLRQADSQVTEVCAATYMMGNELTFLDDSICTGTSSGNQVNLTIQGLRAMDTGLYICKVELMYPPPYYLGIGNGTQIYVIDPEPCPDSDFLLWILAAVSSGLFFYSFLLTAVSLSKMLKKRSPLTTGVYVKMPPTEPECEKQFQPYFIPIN
# Test: flow cytometry, CHO cells stably expressing CTLA4, Fc fusion at 33.3 nM
row,MFI at 33.3 nM [MFI],Binder
1,42100,B1
2,2340,B2
3,26100,B3
4,34700,B4
5,30300,B5
6,34600,B6

# Target: T6, human PD-L1 expressed on CHO cells (human, UniProt Q9NZQ7 19-290)
# T6 construct: whole, on cells; Target on CHO cells stably expressing PD-L1; also called huPD-L1
# T6 sequence (Q9NZQ7 19-290): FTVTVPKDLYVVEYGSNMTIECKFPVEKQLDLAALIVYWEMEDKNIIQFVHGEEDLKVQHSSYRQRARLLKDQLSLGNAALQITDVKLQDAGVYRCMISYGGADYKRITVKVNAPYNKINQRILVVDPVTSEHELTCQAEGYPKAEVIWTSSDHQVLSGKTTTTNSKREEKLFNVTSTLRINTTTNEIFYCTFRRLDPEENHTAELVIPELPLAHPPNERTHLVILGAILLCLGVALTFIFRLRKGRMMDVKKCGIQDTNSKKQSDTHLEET
# Test: flow cytometry, CHO cells stably expressing PD-L1, Fc fusion at 33.3 nM
row,MFI at 33.3 nM [MFI],Binder
1,2370,B1
2,754,B2
3,10500,B3
4,5770,B4
5,12100,B5
6,14500,B6

# Target: T7, human PD-L1, expressed on CHO cells (human, UniProt Q9NZQ7 19-290)
# T7 construct: Full-length surface expression construct transduced by lentivirus into CHO cells; also called huPD-L1; CD274
# T7 sequence (Q9NZQ7 19-290): as above
# Test: flow cytometry on CHO cells stably expressing human PD-L1; PE anti-human Fc
row,MFI at 33.3 nM [MFI],Binder
1,19200,B15
2,21400,B16
3,21800,B17
4,693,B18
5,72100,B19

# Target: T4, CD28 endogenously expressed on …
# Test: flow cytometry, Jurkat cells (CD28); MFI relative to WT CD80 ECD-Fc (Abcam)
row,Fold change to WT CD80 [fold],Binder
1,0.5,B1
2,0.2,B2
3,0.2,B3
4,0.6,B4
5,0.3,B5
6,0.9,B6

# Target: T8, human CTLA-4 (CTLA4), expressed on CHO cells (human, UniProt P16410 36-223)
# T8 construct: Full-length surface expression construct transduced by lentivirus into CHO cells; also called huCTLA4
# T8 sequence (P16410 36-223): as the sequence (P16410 36-223) above
# Test: flow cytometry on CHO cells stably expressing human CTLA-4; PE anti-human Fc
row,MFI at 33.3 nM [MFI],Binder
1,278000,B15
2,2680,B16
3,204000,B17
4,226000,B18
5,3980,B19

# Target: T6, human PD-L1 expressed on CHO cells
# Test: flow cytometry; MFI on PD-L1 cells over MFI on CD28 (Jurkat) cells at 33.3 nM
row,Ratio of PDL1:CD28 [ratio],Binder
1,6.5,B1
2,6.4,B2
3,88.8,B3
4,14,B4
5,49.1,B5
6,22.6,B6

# Target: T5, human CTLA4 expressed on CHO cells
# Test: flow cytometry, CHO cells stably expressing CTLA4; MFI relative to WT CD80 ECD-Fc (Abcam)
row,Fold change to WT CD80 [fold],Binder
1,1,B1
2,0.1,B2
3,0.6,B3
4,0.9,B4
5,0.7,B5
6,0.9,B6

# Target: T6, human PD-L1 expressed on CHO cells
# Test: flow cytometry, CHO cells stably expressing PD-L1; MFI relative to WT CD80 ECD-Fc (Abcam)
row,Fold change to WT CD80 [fold],Binder
1,18.5,B1
2,5.9,B2
3,81.9,B3
4,45,B4
5,94.4,B5
6,113,B6
